Assay [1] deals with T1, IL-23R on human cells (IL-23R-expressing DB cells; human NK cells) (human, UniProt Q5VWK5 24-629).
T1 sequence (looked up): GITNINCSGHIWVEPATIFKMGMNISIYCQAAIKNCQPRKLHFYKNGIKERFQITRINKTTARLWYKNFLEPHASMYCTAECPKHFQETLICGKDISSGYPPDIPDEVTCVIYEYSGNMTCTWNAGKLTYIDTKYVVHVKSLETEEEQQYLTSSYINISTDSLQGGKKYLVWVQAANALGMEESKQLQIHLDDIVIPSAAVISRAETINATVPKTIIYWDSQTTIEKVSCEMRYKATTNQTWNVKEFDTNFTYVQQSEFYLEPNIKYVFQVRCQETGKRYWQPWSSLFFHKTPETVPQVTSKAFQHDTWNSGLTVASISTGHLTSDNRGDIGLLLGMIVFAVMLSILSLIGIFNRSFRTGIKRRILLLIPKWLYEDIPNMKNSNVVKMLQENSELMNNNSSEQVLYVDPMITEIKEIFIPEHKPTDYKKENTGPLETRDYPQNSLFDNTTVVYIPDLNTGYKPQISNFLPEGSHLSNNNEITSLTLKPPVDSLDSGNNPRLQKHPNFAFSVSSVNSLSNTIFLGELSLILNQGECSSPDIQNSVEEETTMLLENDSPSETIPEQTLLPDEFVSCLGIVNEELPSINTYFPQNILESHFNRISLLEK
As to the kind of experiment: cell-based or functional assay.

Assay [2] deals with T2, IL23R_huFC (human, UniProt Q5VWK5 24-353).
T2 sequence (looked up): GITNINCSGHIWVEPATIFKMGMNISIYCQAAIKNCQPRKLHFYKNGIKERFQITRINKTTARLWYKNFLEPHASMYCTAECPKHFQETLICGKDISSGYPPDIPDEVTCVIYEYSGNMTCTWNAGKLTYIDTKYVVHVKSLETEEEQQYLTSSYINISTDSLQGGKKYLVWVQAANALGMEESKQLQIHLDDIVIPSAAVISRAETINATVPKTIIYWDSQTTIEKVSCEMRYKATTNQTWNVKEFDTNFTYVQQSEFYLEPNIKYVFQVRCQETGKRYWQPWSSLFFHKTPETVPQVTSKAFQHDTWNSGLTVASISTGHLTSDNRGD
As to the kind of experiment: human ELISA vs IL-23.

The target in a further assay is T3, IL-23R on DB cells (human, UniProt Q5VWK5 24-629).
T3 sequence (looked up): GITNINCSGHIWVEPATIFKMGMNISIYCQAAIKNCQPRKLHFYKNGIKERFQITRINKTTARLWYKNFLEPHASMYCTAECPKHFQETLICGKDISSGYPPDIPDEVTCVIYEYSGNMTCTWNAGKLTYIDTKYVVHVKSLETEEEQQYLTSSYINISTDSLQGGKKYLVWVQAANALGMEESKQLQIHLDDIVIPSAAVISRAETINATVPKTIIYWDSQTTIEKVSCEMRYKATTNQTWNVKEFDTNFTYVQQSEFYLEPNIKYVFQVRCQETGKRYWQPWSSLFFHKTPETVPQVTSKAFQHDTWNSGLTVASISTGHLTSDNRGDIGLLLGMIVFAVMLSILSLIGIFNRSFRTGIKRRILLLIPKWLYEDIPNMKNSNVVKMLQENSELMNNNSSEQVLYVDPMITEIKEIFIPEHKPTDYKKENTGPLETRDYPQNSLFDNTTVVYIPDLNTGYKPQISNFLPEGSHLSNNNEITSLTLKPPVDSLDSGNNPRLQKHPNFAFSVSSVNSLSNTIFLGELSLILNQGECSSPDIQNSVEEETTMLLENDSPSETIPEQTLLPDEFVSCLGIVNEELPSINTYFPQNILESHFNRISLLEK
The assay is described as follows: cell-based or functional assay.

For assay [3], the target named is T4, IL23R_huFC (human, UniProt Q5VWK5 24-353).
T4 sequence (looked up): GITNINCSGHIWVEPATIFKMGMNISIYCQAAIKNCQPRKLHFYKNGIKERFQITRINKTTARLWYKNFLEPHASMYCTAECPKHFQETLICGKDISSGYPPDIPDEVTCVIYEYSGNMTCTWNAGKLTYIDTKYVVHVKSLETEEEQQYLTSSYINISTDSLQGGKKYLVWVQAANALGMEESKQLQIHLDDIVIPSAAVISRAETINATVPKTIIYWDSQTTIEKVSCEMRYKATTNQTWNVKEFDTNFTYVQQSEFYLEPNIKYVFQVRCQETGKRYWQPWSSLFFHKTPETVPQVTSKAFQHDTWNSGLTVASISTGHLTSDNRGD
The assay is described as follows: IL23-IL23R competitive ELISA.

*1 amine or outer side, *2 acyl side, *3 side chain or, on linkers, in order; H or OH if unused. Bridges are numbered along the chain shown (N, C = ends). Primed or numbered codes have the meaning given here. [ ]: non-standard residue; d: D form. Phe(4-(2-acetylaminoethoxy))″ = 4-(2-acetylaminoethoxy)phenylalanine, CC(=O)NCCOc1ccc(C[C@H](N[*:1])C(=O)[*:2])cc1; Phe(4-OMe)(3) = O-methyl-L-tyrosine (4-methoxy-L-phenylalanine), COc1ccc(C[C@H](N[*:1])C(=O)[*:2])cc1; Phe(4-OMe)(4) = O-methyl-L-tyrosine, COc1ccc(C[C@H](N[*:1])C(=O)[*:2])cc1; Phe(4-tBu) = CC(C)(C)c1ccc(C[C@H](N)C(=O)O)cc1; Bip = N[C@@H](Cc1ccc(-c2ccccc2)cc1)C(=O)O; 2Nal = N[C@@H](Cc1ccc2ccccc2c1)C(=O)O; Ala(cPent) = N[C@@H](CC1CCCC1)C(=O)O; AEF = NCCOc1ccc(C[C@H](N)C(=O)O)cc1; Gly(octyl) = CCCCCCCC[C@H](N)C(=O)O; Cav = NC(N)=NOCC[C@H](N)C(=O)O; αMeL = CC(C)C[C@](C)(N)C(=O)O; Pen = CC(C)(S)[C@H](N)C(=O)O; hLeu = CC(C)CC[C@H](N)C(=O)O; αMeK = C[C@](N)(CCCCN)C(=O)O; αMeS = C[C@](N)(CO)C(=O)O; Abu = CC[C@H](N)C(=O)O; Dap = NC[C@H](N)C(=O)O; Aib = CC(C)(N)C(=O)O Where only a bound is given, the exact number is not on record here.

B1: Ac-Cyclo-[[Abu]-QTWQC]-[Phe[4-(2-aminoethoxy)]]-[2-Nal]-[α-MeSer]-[Lys(Ac)]-NG-NH2 (peptide)
peptide: Ac-[Abu]QTWQC[AEF][2Nal][αMeS]K(Ac)NG-NH2
modifications: thioether 1-6
With B1, the “pStat3 HTRF IC50” value in assay [1] was < 10 nM. Moreover, the concentration for half-maximal inhibition (IC50) with IL23R_huFC [2] is < 10 nM.

B2: Ac-[Pen]-QTWQ-[Pen]-[Phe[4-(2-aminoethoxy)]-[2-Nal]-[Aib]-ENN-NH2 (peptide)
peptide: XQTWQXFXXENN
modifications: Ac; Pen-Pen disulfide; Phe[4-(2-aminoethoxy)]; 2-Nal; Aib; NH2
Take B2: the “pStat3 HTRF IC50” value with IL-23R on DB cells was < 10 nM.

B3: Ac-Cyclo-[[Abu]-QTWQ-[Pen]]-YW-[hLeu]-ENG-NH2 (peptide)
peptide: Ac-[Abu]QTWQ[Pen]YW[hLeu]ENG-NH2
modifications: thioether 1-6
As to B3, in the assay with IL23R_huFC [2], the IC50 is > 1000 nM.

B4: Ac-[Pen]-Dap(Ac)TWQ-[Pen]-[Phe[4-(2-acetylaminoethoxy)]-[2-Nal]-[α-MeLys(Ac)]-ENG-NH2 (peptide)
peptide: Ac-[Pen][Dap](Ac)TWQ[Pen][Phe(4-(2-acetylaminoethoxy))″][2Nal][αMeK](Ac)ENG-NH2
modifications: disulfide 1-6 (inferred)
For B4, the “pStat3 HTRF IC50” value with IL-23R on DB cells was < 10 nM.

B5: Ac-CQTWQCYW-[Cav]-ENG-NH2 (peptide)
peptide: Ac-CQTWQCYW[Cav]ENG-NH2
modifications: disulfide 1-6 (inferred)
For B5, the IC50 with IL23R_huFC [3] is < 500 nM.

B6: Ac-Cyclo-[[Abu]-QTWQC]-[Phe[4-(2-aminoethoxy)]]-[2-Nal]-[Aib]-KNG-NH2 (peptide)
peptide: Ac-[Abu]QTWQC[AEF][2Nal][Aib]KNG-NH2
modifications: thioether 1-6
B6: the “pStat3 HTRF IC50” value in assay [1] was < 10 nM. Moreover, in the assay with IL23R_huFC [2], the 50% inhibitory concentration (IC50) was < 10 nM.

B7: Ac-Cyclo-[[Abu]-QTWQC]-[Phe[4-(2-aminoethoxy)]]-[2-Nal]-[Aib]-[Lys(Ac)]-NG-NH2 (peptide)
peptide: Ac-[Abu]QTWQC[AEF][2Nal][Aib]K(Ac)NG-NH2
modifications: thioether 1-6
For the molecule B7, the “pStat3 HTRF IC50” value in assay [1] is < 10 nM. In addition, the half-maximal inhibitory concentration (IC50) in the assay with IL23R_huFC [2] is < 10 nM.

B8: Ac-Cyclo-[[Abu]-QTWQC]-[Phe[4-(2-aminoethoxy)]]-[2-Nal]-[α-Me-Orn]-[Lys(Ac)]-NG-NH2 (peptide)
peptide: XQTWQCFXXKNG
modifications: as bracketed in name; thioether cyclo
For B8, in assay [1], the “pStat3 HTRF IC50” value was < 10 nM. In addition, the IC50 with IL23R_huFC [2] was < 10 nM.

B9: Ac-[Pen]-QTWQ-[Pen]-[Phe[4-(2-aminoethoxy)]-[2-Nal]-[hLeu]-ENA-NH2 (peptide)
peptide: XQTWQXFXLENA
modifications: Ac; Pen-Pen disulfide; Phe[4-(2-aminoethoxy)]; 2-Nal; hLeu; NH2
Turning to B9, in the assay with IL-23R on DB cells, the “pStat3 HTRF IC50” value was in the range of 10 to 25 nM.

B10: Ac-[Pen]-QTWQ-[Pen]-[Phe(4-OMe)]-[2-Nal]-[Aib]-ENN-NH2 (peptide)
peptide: XQTWQXFXXENN
modifications: Ac; Pen-Pen disulfide; Phe(4-OMe); 2-Nal; Aib; NH2
For the molecule B10, the “pStat3 HTRF IC50” value in the assay with IL-23R on DB cells was < 10 nM.

B11: Ac-Cyclo-[Abu]-QTWQ-(D)Cys]]-YW-[hLeu]-ENG-NH2 (peptide)
peptide: Ac-[Abu]QTWQ[dC]YW[hLeu]ENG-NH2
modifications: thioether 1-6
B11: the IC50 with IL23R_huFC [2] was > 1000 nM.

B12: Ac-Cyclo-[[Abu]-QTWQC]-[Phe[4-(2-aminoethoxy)]]-W-[α-Me-Leu]-ENG-NH2 (peptide)
peptide: Ac-[Abu]QTWQC[AEF]W[αMeL]ENG-NH2
modifications: thioether 1-6
Consider B12, for which the “pStat3 HTRF IC50” value in assay [1] is < 10 nM. The half-inhibitory concentration (IC50) in the assay with IL23R_huFC [2] is < 10 nM.

B13: Ac-Cyclo-[[Abu]-QTWQC]-[Phe(4-OMe)]-[Octgly]-[α-MeLys]-[Lys(Ac)]-NG-NH2 (peptide)
peptide: Ac-[Abu]QTWQC[Phe(4-OMe)(3)][Gly(octyl)][αMeK]K(Ac)NG-NH2
modifications: thioether 1-6
As to B13, the half-maximal inhibitory concentration (IC50) in the assay with IL23R_huFC [2] is ~10000 nM.

B14: Ac-Cyclo-[[Abu]-QTWQC]-[Phe(4-OMe)]-[Phe(4-tBu)]-[α-MeLys]-ENG-NH2 (peptide)
peptide: Ac-[Abu]QTWQC[Phe(4-OMe)(3)][Phe(4-tBu)][αMeK]ENG-NH2
modifications: thioether 1-6
Regarding B14, in the assay with IL23R_huFC [2], the IC50 was > 1000 nM.

B15: Ac-Cyclo-[[Abu]-QTWQC]-[Phe[4-(2-aminoethoxy)]]-[2-Nal]-[α-MeLys]-[Orn]-NG-NH2 (peptide)
peptide: XQTWQCFXKXNG
modifications: as bracketed in name; thioether cyclo
B15: the “pStat3 HTRF IC50” value in assay [1] was < 10 nM. Also, the IC50 with IL23R_huFC [2] is < 10 nM.

B16: Ac-Cyclo-[[Abu]-QT-[Bip]-QC]-[Phe(4-OMe)]-[2-Nal][α-MeLys]-[Lys(Ac)]-NG-NH2 (peptide)
peptide: Ac-[Abu]QT[Bip]QC[Phe(4-OMe)(4)][2Nal][αMeK]K(Ac)NG-NH2
modifications: thioether 1-6
In the case of B16, the half-inhibitory concentration (IC50) with IL23R_huFC [2] was ~10000 nM.

B17: Ac-[Pen]-QTWQ-[Pen]-[Phe[4-(2-aminoethoxy)]-[2-Nal]-Aib-[Lys(Ac)]-NN-NH2 (peptide)
peptide: XQTWQXFXXKNN
modifications: Ac; Pen-Pen disulfide; Phe[4-(2-aminoethoxy)]; 2-Nal; Aib; Lys(Ac); NH2
As for B17, the “pStat3 HTRF IC50” value with IL-23R on DB cells was < 10 nM.

B18: Ac-CQTWQCYW-[Cpa]-ENG-NH2 (peptide)
peptide: Ac-CQTWQCYW[Ala(cPent)]ENG-NH2
modifications: disulfide 1-6 (inferred)
In the case of B18, the IC50 with IL23R_huFC [3] is < 500 nM.

B19: Ac-[Pen]-QTWQ-[Pen]-Y-[2-Nal]-[α-MeOrn]-ENG-NH2 (peptide)
peptide: XQTWQXYXXENG
modifications: Ac; Pen-Pen disulfide; 2-Nal; α-MeOrn; NH2
Take B19: in the assay with IL-23R on DB cells, the “pStat3 HTRF IC50” value lay within 10 to 25 nM.
